Test results reported in US10538802B2, “Polypeptide substrate for the detection of von Williebrand factor cleaving protease ADAMTS13” (IMMUCOR GTI DIAGNOSTICS, INC., priority 2011, dated 2020).

Biological target: T1, ADAMTS13 (Homo sapiens, UniProt Q76LX8)
T1 construct: tissue Gen-Probe GTI Diagnostics (ATS-13 kit calibrators, controls and proficiency samples); George King Biomedical Inc. (FACT, A-FACT, B-FACT plasmas) ATS-13; host or cells: plasma
T1 sequence (Q76LX8 75-1427): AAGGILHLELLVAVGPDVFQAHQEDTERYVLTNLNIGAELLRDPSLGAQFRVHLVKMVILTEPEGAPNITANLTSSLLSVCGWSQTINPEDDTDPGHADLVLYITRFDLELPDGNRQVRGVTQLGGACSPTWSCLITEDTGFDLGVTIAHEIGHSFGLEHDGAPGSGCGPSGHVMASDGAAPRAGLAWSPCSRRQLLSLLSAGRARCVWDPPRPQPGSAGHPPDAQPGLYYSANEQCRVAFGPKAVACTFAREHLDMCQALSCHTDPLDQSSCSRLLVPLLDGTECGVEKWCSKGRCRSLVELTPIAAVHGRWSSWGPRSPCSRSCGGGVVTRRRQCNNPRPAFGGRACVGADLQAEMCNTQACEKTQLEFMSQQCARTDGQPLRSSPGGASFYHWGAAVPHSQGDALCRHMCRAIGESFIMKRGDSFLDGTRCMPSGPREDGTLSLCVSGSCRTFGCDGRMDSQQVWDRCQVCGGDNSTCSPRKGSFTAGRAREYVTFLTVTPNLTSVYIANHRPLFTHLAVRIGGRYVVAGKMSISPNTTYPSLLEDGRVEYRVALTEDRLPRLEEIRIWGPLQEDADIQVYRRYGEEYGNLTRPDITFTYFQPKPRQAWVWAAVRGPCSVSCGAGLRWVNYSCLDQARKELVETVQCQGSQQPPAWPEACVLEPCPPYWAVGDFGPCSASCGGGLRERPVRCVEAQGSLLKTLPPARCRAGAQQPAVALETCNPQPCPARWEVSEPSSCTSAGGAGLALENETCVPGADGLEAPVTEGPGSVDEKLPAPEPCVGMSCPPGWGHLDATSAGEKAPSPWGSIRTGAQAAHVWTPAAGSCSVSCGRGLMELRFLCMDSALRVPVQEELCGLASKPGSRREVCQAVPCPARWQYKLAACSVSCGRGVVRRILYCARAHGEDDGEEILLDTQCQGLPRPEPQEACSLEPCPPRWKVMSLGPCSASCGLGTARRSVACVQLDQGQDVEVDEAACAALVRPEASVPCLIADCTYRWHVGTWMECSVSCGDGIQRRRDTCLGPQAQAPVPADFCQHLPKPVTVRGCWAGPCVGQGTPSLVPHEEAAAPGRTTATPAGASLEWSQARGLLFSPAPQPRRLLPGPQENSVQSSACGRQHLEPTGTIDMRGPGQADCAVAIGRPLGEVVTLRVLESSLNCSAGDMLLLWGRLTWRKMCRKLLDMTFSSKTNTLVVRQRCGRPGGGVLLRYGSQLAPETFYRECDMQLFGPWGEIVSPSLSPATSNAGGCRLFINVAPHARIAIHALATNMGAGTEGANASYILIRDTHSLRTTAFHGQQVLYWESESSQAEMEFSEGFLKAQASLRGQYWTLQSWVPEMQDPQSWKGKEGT
Assay: ADAMTS13 activity assay with fluorogenic (FRET) polypeptide substrate and diluted plasma samples
Type: biochemical
Protocol: The procedure in this example was performed substantially as described in Kokame, K., Y. Nobe, Y. Kokubo, A. Okayama, and T. Miyata. 2005. FRETS-VWF73, a first fluorogenic substrate for ADAMTS13 assay. Br. J. Haematol. 129:93-100, but using SEQ ID NO: 1 in place of the 73 amino acid substrate described therein. The FRETS-VWF73 substrate solution was dissolved in 25% dimethyl sulphoxide/water to prepare the 100 microM stock solution. The GTI FRET4 SEQ ID NO: 1 was dissolved in 100% DMSO. Both substrates were diluted to equal concentrations using ATS-13 substrate buffer (Gen-Probe GT1 Diagnostics, Inc., U.S.A., Cat#ATS-13).
Plasma samples were diluted according to the ATS-13 Direction Insert using ATS-13 specimen diluent (Gen-Probe GTI Diagnostics, Inc., U.S.A., Cat# ATS-13). The diluted plasma samples were mixed with the diluted substrate and the fluorescence was read at 0, 5, 10, 15, 20, 30, 45 minutes using a Biotek FLX800 at the appropriate excitation and emission wavelengths for each substrate.
The fluorophore-quencher pair in the SEQ ID NO: 1 polypeptide substrate is FAM-5/TQ 2^Tm (Ex 485±20; Em 528±20; AAT Bioquest, Inc. Sunnyvale, Calif. U.S.A.). The fluorophore and quencher pair of FRETS-VWF73 (Nma/Dnp) described in Kokame has been substituted with FAM-5 and TQ_2 respectively in GTI_FRET4 SEQ ID NO: 1. Furthermore, in the SEQ ID NO: 1 polypeptide the position of the fluorophore (FAM-5) and quencher (TQ_2) has been swapped relative to the position of the fluorophore and quencher of the FRETS-VWF73 construct. Therefore, for GTI_FRET4 SEQ ID NO: 1, attachment of the fluorophore (FAM-5) occurs by substituting asparagine with cystine at position 15. The quencher (TQ_2) was attached by substituting glutamine with lysine at position 4 (FIG. 2 and Table 4).
For this experiment, substrate concentration and fluorescence reader settings determined on the previous experiment are used. The specimens tested (listed in Table 3), include a panel of proficiency samples prepared for use with ATS-13 (Gen-Probe GTI Diagnostics, Inc., U.S.A., Cat# ATS-13) which included samples with normal or deficient ADAMTS13 activity levels. In addition, six Factor Assay ConTrol plasma were used (2 FACT, 2 A-FACT and 2 B-FACT, from George King Biomedical Inc., Kansas, USA). The assays for the SEQ ID NO: 1 substrate and for the prior art FRETS-VWF73 assay were performed generally as according to the procedure described in Example 1. Substrate is prepared according to the conditions used for initial testing of the substrate, which prepared the molar amount of SEQ ID NO: 1 polypeptide substrate used in the assay to be equivalent to the molar amount of FRETS-VWF73 used in the prior art. The […] assays were read at 0, 5, 10, 15, 20, 30, 45 minutes.
Testing of substrate for cleavability by ADAMTS13 is determined as is generally described in Example 1. […]

## DREKAPNLVYMVTGCPASDEIKRLPGDIQVVPIEVIGWPNAPILIQDEETLPREAPDLVLQR [GTI_FRET4]
Sample Positive Control High, incubation 60 Minutes
  % Normal ADAMTS13 Values Calculated Using GTI_FRET4 Substrate: 51 % Normal
Sample Positive Control High, incubation 75 Minutes
  % Normal ADAMTS13 Values Calculated Using GTI_FRET4 Substrate: 54 % Normal
Sample Positive Control High, incubation 90 Minutes
  % Normal ADAMTS13 Values Calculated Using GTI_FRET4 Substrate: 55 % Normal
Sample Positive Control Low, 15 min
  Increase in Fluorescence Values (X minute - 0 minute Reading): 2,182 RFU
Sample Positive Control Low, 30 min
  Increase in Fluorescence Values (X minute - 0 minute Reading): 3,902 RFU
Sample Positive Control Low, 45 min
  Increase in Fluorescence Values (X minute - 0 minute Reading): 5,511 RFU
Sample Positive Control Low, 60 min
  Increase in Fluorescence Values (X minute - 0 minute Reading): 7,169 RFU
Sample Positive Control Low, 75 min
  Increase in Fluorescence Values (X minute - 0 minute Reading): 8,789 RFU
Sample Positive Control Low, 90 min
  Increase in Fluorescence Values (X minute - 0 minute Reading): 10,370 RFU
Sample Positive Control Low, incubation 15 Minutes
  % Normal ADAMTS13 Values Calculated Using GTI_FRET4 Substrate: 10 % Normal
Sample Positive Control Low, incubation 30 Minutes
  % Normal ADAMTS13 Values Calculated Using GTI_FRET4 Substrate: 10 % Normal
Sample Positive Control Low, incubation 45 Minutes
  % Normal ADAMTS13 Values Calculated Using GTI_FRET4 Substrate: 10 % Normal
Sample Positive Control Low, incubation 60 Minutes
  % Normal ADAMTS13 Values Calculated Using GTI_FRET4 Substrate: 10 % Normal
Sample Positive Control Low, incubation 75 Minutes
  % Normal ADAMTS13 Values Calculated Using GTI_FRET4 Substrate: 10 % Normal
Sample Positive Control Low, incubation 90 Minutes
  % Normal ADAMTS13 Values Calculated Using GTI_FRET4 Substrate: 9 % Normal
Sample UAMS041609, 15 min
  Increase in Fluorescence Values (X minute - 0 minute Reading): 3,876 RFU
Sample UAMS041609, 30 min
  Increase in Fluorescence Values (X minute - 0 minute Reading): 7,931 RFU
Sample UAMS041609, 45 min
  Increase in Fluorescence Values (X minute - 0 minute Reading): 11,692 RFU
Sample UAMS041609, 60 min
  Increase in Fluorescence Values (X minute - 0 minute Reading): 15,886 RFU
Sample UAMS041609, 75 min
  Increase in Fluorescence Values (X minute - 0 minute Reading): 19,867 RFU
Sample UAMS041609, 90 min
  Increase in Fluorescence Values (X minute - 0 minute Reading): 24,709 RFU
Sample UAMS041609, incubation 15 Minutes
  % Normal ADAMTS13 Values Calculated Using GTI_FRET4 Substrate: 19 % Normal
Sample UAMS041609, incubation 30 Minutes
  % Normal ADAMTS13 Values Calculated Using GTI_FRET4 Substrate: 22 % Normal
Sample UAMS041609, incubation 45 Minutes
  % Normal ADAMTS13 Values Calculated Using GTI_FRET4 Substrate: 23 % Normal
Sample UAMS041609, incubation 60 Minutes
  % Normal ADAMTS13 Values Calculated Using GTI_FRET4 Substrate: 24 % Normal
Sample UAMS041609, incubation 75 Minutes
  % Normal ADAMTS13 Values Calculated Using GTI_FRET4 Substrate: 26 % Normal
Sample UAMS041609, incubation 90 Minutes
  % Normal ADAMTS13 Values Calculated Using GTI_FRET4 Substrate: 27 % Normal
Sample VF, 15 min
  Increase in Fluorescence Values (X minute - 0 minute Reading): 1,292 RFU
Sample VF, 30 min
  Increase in Fluorescence Values (X minute - 0 minute Reading): 2,436 RFU
Sample VF, 45 min
  Increase in Fluorescence Values (X minute - 0 minute Reading): 3,552 RFU
Sample VF, 60 min
  Increase in Fluorescence Values (X minute - 0 minute Reading): 4,690 RFU
Sample VF, 75 min
  Increase in Fluorescence Values (X minute - 0 minute Reading): 5,784 RFU
Sample VF, 90 min
  Increase in Fluorescence Values (X minute - 0 minute Reading): 7,260 RFU
Sample VF, incubation 15 Minutes
  % Normal ADAMTS13 Values Calculated Using GTI_FRET4 Substrate: 5 % Normal
Sample VF, incubation 30 Minutes
  % Normal ADAMTS13 Values Calculated Using GTI_FRET4 Substrate: 6 % Normal
Sample VF, incubation 45 Minutes
  % Normal ADAMTS13 Values Calculated Using GTI_FRET4 Substrate: 6 % Normal
Sample VF, incubation 60 Minutes
  % Normal ADAMTS13 Values Calculated Using GTI_FRET4 Substrate: 6 % Normal
Sample VF, incubation 75 Minutes
  % Normal ADAMTS13 Values Calculated Using GTI_FRET4 Substrate: 5 % Normal
Sample VF, incubation 90 Minutes
  % Normal ADAMTS13 Values Calculated Using GTI_FRET4 Substrate: 6 % Normal
